A short description of experiment [1]: Methane to methanol conversion (alcohol oxidase/Purpald). It is filed as biochemical. Particulars: for Methane TTN: methane to methanol. How it is done:
The 35-E11 variant was tested for the ability to convert methane to methanol using the method of Anthon and Barrett (Agric. Food Chem., 52:3749 (2004)). The method was optimized so that it could detect methanol concentrations in water as low as 10 μM.
The mutant BM-3 enzymes described below were purified using published procedures and used as catalysts in small reactions with methane. In glass head space vials containing magnetic stirring bars, BM-3 catalyst was added to 0.1 M potassium phosphate buffer (pH=8) saturated with methane. The vials were then crimped shut and charged to 20 psi with methane. To start the biotransformation, an NADPH regeneration system consisting of NADP+, isocitrate, and isocitric dehydrogenase was added through a syringe. The reaction was allowed to stir 12-15 hours. Methanol production was measured using a coupled enzyme assay. Aliquots of the reaction were transferred to 96-well microtitre plates and reacted with the enzyme alcohol oxidase for 5 minutes at room temperature. Alcohol oxidase converts the methanol produced by the BM-3 variants into formaldehyde which can be detected with the dye Purpald. To detect formaldehyde and quench the alcohol oxidase reaction, a solution of Purpald in 2 M NaOH was added and allowed to react for one hour. The purple color that Purpald forms in the presence of formaldehyde was quantified one hour later by spectrophotometrically reading the well at 550 nm and comparing the absorbance against similarly-treated solutions of BM-3, NADPH regeneration system, and methane-free buffer spiked with known concentrations of methanol. The results of these biotransformations are reported in Table 3 and sample spectra from the colorimetric assay are shown in FIG. 7.
Reactions for enzyme-catalyzed conversion of methane to methanol were carried out in 10 mL glass headspace vials. A 470 μL reaction mixture containing 5 μM purified BM-3 variant in 0.1 M potassium phosphate buffer (pH 8.0) was first added to the vial. The vial was immediately topped with a septum, pressurized with 30 psi of methane and shaken at 4° C. for 1 hour. […] For determination of total turnover, the reaction was allowed to proceed for 20 hours at room temperature.
The amount of methanol product formed during the 20 hr methane reaction was quantified colorimetrically with the use of alcohol oxidase and Purpald. 190 μL of the reaction mixture is transferred onto a single cell of a 96 well plate. 10 μL of 0.05 U/μL solution of alcohol oxidase (from Pichia pastoris, purchased from Sigma-Aldrich) was added to cell and allowed to incubate at room temperature for 5 minutes. During this time, the alcohol oxidase converts the methanol into formaldehyde. Purpald (168 mM in 2 M NAOH) was then added to form a purple product with the formaldehyde in solution. The purple color was read approximately 1 hour later at 550 nm using a Spectramax Plus microtiter plate reader. The concentration of methanol was determined based on the measure absorbance in comparison to a methanol calibration curve. The methanol calibration curve was generated with several standards. Each standard contained 100 μL of a methanol solution (10, 20, 40, 60, 100 μM) and 90 μL of the methane reaction mixture described above, without the methane pressurization.
The relative dimethyl ether (DME) activity was measured, 1 hour after treatment with Purpald, as the average net and absorbance at 550 nm from 8 microtitre plate DME reactions of the mutant compared to 8 equivalent reactions of 35-E11. All values were normalized by measuring the P450 concentration in each well with CO binding. “Asteriks” indicate criteria used to select mutants from libraries for further characterization. The oxidation rate is measured as absorbance change at 340 nm over 1 minute upon the addition of NADPH to 8 microtitre plate wells containing P450-containing cell lysate and compared to 8 equivalent reactions of 35-E11. […]

Experiment [2] can be described thus: Background NADPH oxidation rate in screen (cell lysate, no substrate). The experiment is classed as biochemical. The following applies: relative to 35-E11. The method, then:
Libraries of mutants of 35-E11 were screened for phenotypes indicative of either increased product formation on small gaseous substrates slightly larger than methane. Additionally, they were screened for increased coupling of the consumption of NADPH reducing equivalents to product formation. Product formation was determined by measuring total amount of dimethyl ether hydroxylation while increased coupling was determined primarily by decreased background NADPH consumption rates (measured spectrophotometrically at 340 nm in the absence of substrate).
The relative dimethyl ether (DME) activity was measured, 1 hour after treatment with Purpald, as the average net and absorbance at 550 nm from 8 microtitre plate DME reactions of the mutant compared to 8 equivalent reactions of 35-E11. All values were normalized by measuring the P450 concentration in each well with CO binding. “Asteriks” indicate criteria used to select mutants from libraries for further characterization. The oxidation rate is measured as absorbance change at 340 nm over 1 minute upon the addition of NADPH to 8 microtitre plate wells containing P450-containing cell lysate and compared to 8 equivalent reactions of 35-E11. All values were normalized by measuring the P450 concentration in each well with CO binding. The total turnover number (TTN) was measured as the absorbance at 550 nm of methane reactions with each mutant after treatment with alcohol oxidase and […]

Positions count from the first letter of the chain named. Names may count otherwise.

B1: 35-E11: P450 BM-3 variant, SEQ ID NO:7: 53-5H substitutions plus E464G and I710T (protein)
chain: TIKEMPQPKTFGELKNLPLLNTDKPVQALMKIADELGEIFKFEAPGCVTRYLSSQRLIKEACDESRFDKNLSQALKFFRDFSGDGLFTSWTHEINWKKAHNILLPSFSQQAMKGYHAMMVDIAVQLVQKWERLNADEHIEVSEDMTRLTLDTIGLCGFNYRFNSFYRDQPHPFIISMVRALDEVMNKLQRANPDDPAYDENKRQCQEDIKVMNDLVDKIIADRKARGEQSDDLLTQMLNGKDPETGEPLDDGNISYQIITFLIAGHETTSGLLSFALYFLVKNPHVLQKVVEEAARVLVDPVPSYKQVKQLKYVGMVLNEALRLWPTFPAFSLYAKEDTVLGGEYPLEKGDEVMVLIPQLHRDKTIWGDDVEEFRPERFENPSAIPQHAFKPFGNGQRACIGQQFALHEATLVLGMMLKHFDFEDHTNYELDIKETLTLKPEGFVVKAKSKKIPLGGIPSPSTGQSAKKVRKKAENAHNTPLLVLYGSNMGTAEGTARDLADIAMSKGFAPQVATLDSHAGNLPREGAVLIVTASYNGHPPDNAKQFVDWLDQASADEVKGVRYSVFGCGDKNWATTYQKVPAFIDETLAAKGAENIADRGEADASDDFEGTYEEWREHMWSDVAAYFNLDIENSEDNKSTLSLQFVDSAADMPLAKMHGAFSTNVVASKELQQPGSARSTRHLEIELPKEASYQEGDHLGVIPRNYEGTVNRVTARFGLDASQQIRLEAEEEKLAHLPLAKTVSVEELLQYVELQDPVTRTQLRAMAAKTVCPPHKVELEALLEKQAYKEQVLAKRLTMLELLEKYPACEMKFSEFIALLPSIRPRYYSISSSPRVDEKQASITVSVVSGEAWSGYGEYKGIASNYLAELQEGDTITCFISTPQSEFTLPKDPETPLIMVGPGTGVAPFRGFVQARKQLKEQGQSLGEAHLYFGCRSPHEDYLYQEELENAQSEGIITLHTAFSRMPNQPKTYVQHVMEQDGKKLIELLDQGAHFYICGDGSQMAPAVEATLMKSYADVHQVSEADARLWLQQLEEKGRYAKDVWAG
modifications: mutant P450 35-E11 protein sequence
Regarding B1, the “methanol production from methane” value in experiment [1] (assay detects methanol as low as 10 μM) was “producing methanol from methane”. In addition, the “Methane TTN” value in experiment [1] was 8. In addition, the “Relative background NADPH oxidation rate” value in experiment [2] turned out to be 1.

B2: 20-D3: P450 BM-3 variant, SEQ ID NO:11; 35-E11 plus H285R (protein)
chain: B1 chain with H285R
modifications: mutant P450 20-D3 protein sequence
notes: 35-E11 plus H285R
Turning to B2, in experiment [1], the “Methane TTN” value was found to be 10. Also, the “Relative background NADPH oxidation rate” value in experiment [2] is given as 1.6.

(Values after patent publication US12258605B2, “Alkane oxidation by modified hydroxylases” (The California Institute of Technology, priority 2005, dated 2025).)
